Data reported in the supplement of paper PMC7877785.
± gives the uncertainty stated by the source.

Experiment: self-splicing fitness, log relative to wild type (ln ratio); higher = more splicing; Tetrahymena group I intron in knt gene, E. coli kanamycin selection, DiMSum; sequences stand for … in CUCUCU…GGAGGGAAAAGUUAUCAGGCAUGCACCUGGUAGCUAGUCUUUAAACCAAUAGAUUGCAUCGGUUUAAAAGGCAAGACCGUCAAAUUGCGGGAAAGGGGUCAACAGCCGUUCAGUACCAAGUCUCAGGGGAAACUUUGAGAUGGCCUUGCAAAGGGUAUGGUAAUAAGCUGACGGACAUGGUCCUAACCACGCAGCCAAGUCCUAAGUCAACAGAUCUUCUGUUGAUAUGGAUGCAGUUCACAGACUAAAUGUCGGUCGGGGAAGAUGUAUUCUUCUCAUAAGAUAUAGUCGGACCUCUCCUUAAUGGGAGCUAGCGGAUGAAGUGAUGCAACACUGGAGCCGCUGGGAACUAAUUUGUAUGCGAAAGUAUAUUGAUUAGUUUUGGAGUACUCGUGGUCG
Outline: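 Six replicate transformations of E. coli BL21(DE3) with a pET-22b(+) library were grown overnight at 37°C or 30°C. The library randomised all eight P1ex-region intron nucleotides, the intron lying in the knt kanamycin-resistance gene, and plates were LB agar with or without 25 μg/mL kanamycin plus 100 μg/mL carbenicillin, 50 μM IPTG and 0.2% rhamnose. Pooled colonies were amplicon-sequenced on an Illumina HiSeq 2500, and fitness is the DiMSum error-weighted combination of wild-type-normalised replicate fold changes, kanamycin versus none.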

| Sequence | self-splicing fitness (ln) (30 °C) | self-splicing fitness (ln) (37 °C) |
| --- | --- | --- |
| UUAUAGCAAUAUUACGUGUG | -1.63 ± 0.083 | -0.419 ± 0.098 |
| UUCAAGCAAUAUUACGAACG | -4.29 ± 0.36 | -2.46 ± 0.25 |
| UUCAAGCAAUAUUACGAAGG | -4.7 ± 0.41 | -2.95 ± 0.26 |
| UUCAAGCAAUAUUACGAAGU | -3.76 ± 0.37 | -0.849 ± 0.23 |
| UUCAAGCAAUAUUACGACGU | -0.831 ± 0.094 | 0.325 ± 0.13 |
| UUCAAGCAAUAUUACGACUU | -3.86 ± 0.15 | -2.65 ± 0.18 |
| UUCAAGCAAUAUUACGAUGC | -3.39 ± 0.45 | -1.85 ± 0.28 |
| UUCAAGCAAUAUUACGCAGA | -3.11 ± 0.35 | -1.91 ± 0.2 |
| UUCAAGCAAUAUUACGCAUC | -3.87 ± 0.29 | -1.81 ± 0.17 |
| UUCAAGCAAUAUUACGCCUG |  | -1.64 ± 0.34 |
| UUCAAGCAAUAUUACGCGAU | -2.11 ± 0.16 | -3 ± 0.34 |
| UUCAAGCAAUAUUACGCUAG | -2.23 ± 0.23 | -2.32 ± 0.26 |
| UUCAAGCAAUAUUACGGACA | -0.496 ± 0.12 | 0.121 ± 0.11 |
| UUCAAGCAAUAUUACGGAUU | -3.19 ± 0.17 | -1.96 ± 0.14 |
| UUCAAGCAAUAUUACGGCUA | -0.138 ± 0.094 | -0.12 ± 0.087 |
| UUCAAGCAAUAUUACGGGAG | -1.78 ± 0.098 | -0.95 ± 0.097 |
| UUCAAGCAAUAUUACGGGCG | -0.977 ± 0.077 | -0.629 ± 0.1 |
| UUCAAGCAAUAUUACGGGGU | -3.57 ± 0.21 | -3.15 ± 0.25 |
| UUCAAGCAAUAUUACGGUGG | -1.54 ± 0.12 | -0.439 ± 0.13 |
| UUCAAGCAAUAUUACGGUUG | -2.96 ± 0.14 | -2.41 ± 0.18 |
| UUCAAGCAAUAUUACGUAAA | -0.739 ± 0.086 | -0.541 ± 0.14 |
| UUCAAGCAAUAUUACGUCCU | -1.99 ± 0.12 | -1.04 ± 0.14 |

| Sequence | self-splicing fitness (ln) (30 °C) | self-splicing fitness (ln) (37 °C) |
| --- | --- | --- |
| UUCAAGCAAUAUUACGUCGC | -4.02 ± 0.3 | -2.17 ± 0.3 |
| UUCAAGCAAUAUUACGUGGG | -3.07 ± 0.11 | -1.97 ± 0.13 |
| UUCCAGCAAUAUUACGAAAA | -0.987 ± 0.11 | 0.126 ± 0.11 |
| UUCCAGCAAUAUUACGACCU | -2.38 ± 0.26 | -3.19 ± 0.39 |
| UUCCAGCAAUAUUACGACGU | -2.06 ± 0.18 | -2.18 ± 0.2 |
| UUCCAGCAAUAUUACGAUGG | -2.91 ± 0.24 |  |
| UUCCAGCAAUAUUACGAUGU | -3.24 ± 0.12 | -2.22 ± 0.16 |
| UUCCAGCAAUAUUACGCAAG | -1.62 ± 0.07 | -0.644 ± 0.09 |
| UUCCAGCAAUAUUACGCCAA | -0.739 ± 0.12 | -0.362 ± 0.17 |
| UUCCAGCAAUAUUACGCUAU | -2.04 ± 0.085 | -0.605 ± 0.083 |
| UUCCAGCAAUAUUACGCUCC | -2.51 ± 0.24 | -0.988 ± 0.22 |
| UUCCAGCAAUAUUACGCUGG | -3.73 ± 0.27 | -2.51 ± 0.31 |
| UUCCAGCAAUAUUACGGAAC |  | -3.19 ± 0.4 |
| UUCCAGCAAUAUUACGGACA | -0.469 ± 0.068 | -0.0722 ± 0.077 |
| UUCCAGCAAUAUUACGGAUU | -1.9 ± 0.11 | -1.01 ± 0.12 |
| UUCCAGCAAUAUUACGGCAC | -2.78 ± 0.21 | -0.351 ± 0.2 |
| UUCCAGCAAUAUUACGGCUU | -1.4 ± 0.11 | -0.36 ± 0.1 |
| UUCCAGCAAUAUUACGGGCA | -0.578 ± 0.067 | 0.454 ± 0.089 |
| UUCCAGCAAUAUUACGUACC | -2.05 ± 0.24 | -1.71 ± 0.31 |
| UUCCAGCAAUAUUACGUAGG | -4.29 ± 0.42 | -2.44 ± 0.23 |
| UUCCAGCAAUAUUACGUCAC | -2.79 ± 0.18 | -3.15 ± 0.29 |
